Patent publication US20250108100A1, “C-TERMINAL FRAGMENT OF APOLIPOPROTEIN E AND APPLICATION THEREOF IN INHIBITING y-SECRETASE ACTIVITY” (SYNPHATEC (SHANGHAI) BIOPHARMACEUTICAL TECHNOLOGY CO., LTD., priority 2022, published 2025)

B1: CT ND5: SEQ ID NO: 22; ApoE CT with 5 N-terminal amino acids deleted (protein)
chain: MGSRTRDRLDEVKEQVAEVRAKLEEQAQQIRLQAEAFQARLKSWFEPLVEDMQRQWAGLVEKVQAAVGTSAAPVPSDNH
B2: CT CD5: SEQ ID NO: 23; ApoE CT with 5 C-terminal amino acids deleted (protein)
chain: ARMEEMGSRTRDRLDEVKEQVAEVRAKLEEQAQQIRLQAEAFQARLKSWFEPLVEDMQRQWAGLVEKVQAAVGTSAAPV
B3: CT CD10: SEQ ID NO: 24; ApoE CT with 10 C-terminal amino acids deleted (protein)
chain: ARMEEMGSRTRDRLDEVKEQVAEVRAKLEEQAQQIRLQAEAFQARLKSWFEPLVEDMQRQWAGLVEKVQAAVGT
B4: CT NA1: SEQ ID NO: 13; ApoE CT with 1 original ApoE residue added to the N-terminus (protein)
chain: RARMEEMGSRTRDRLDEVKEQVAEVRAKLEEQAQQIRLQAEAFQARLKSWFEPLVEDMQRQWAGLVEKVQAAVGTSAAPVPSDNH
B5: CT NA2: SEQ ID NO: 14; ApoE CT with 2 original ApoE residues added to the N-terminus (protein)
chain: LRARMEEMGSRTRDRLDEVKEQVAEVRAKLEEQAQQIRLQAEAFQARLKSWFEPLVEDMQRQWAGLVEKVQAAVGTSAAPVPSDNH
B6: CT NA3: SEQ ID NO: 15; ApoE CT with 3 original ApoE residues added to the N-terminus (protein)
chain: RLRARMEEMGSRTRDRLDEVKEQVAEVRAKLEEQAQQIRLQAEAFQARLKSWFEPLVEDMQRQWAGLVEKVQAAVGTSAAPVPSDNH
B7: CT NA4: SEQ ID NO: 16; ApoE CT with 4 original ApoE residues added to the N-terminus (protein)
chain: ERLRARMEEMGSRTRDRLDEVKEQVAEVRAKLEEQAQQIRLQAEAFQARLKSWFEPLVEDMQRQWAGLVEKVQAAVGTSAAPVPSDNH
B8: CT NA5: SEQ ID NO: 17; ApoE CT with 5 original ApoE residues added to the N-terminus (protein)
chain: GERLRARMEEMGSRTRDRLDEVKEQVAEVRAKLEEQAQQIRLQAEAFQARLKSWFEPLVEDMQRQWAGLVEKVQAAVGTSAAPVPSDNH
B9: CT ND1: SEQ ID NO: 18; ApoE CT with 1 N-terminal amino acid deleted (protein)
chain: RMEEMGSRTRDRLDEVKEQVAEVRAKLEEQAQQIRLQAEAFQARLKSWFEPLVEDMQRQWAGLVEKVQAAVGTSAAPVPSDNH
B10: CT ND2: SEQ ID NO: 19; ApoE CT with 2 N-terminal amino acids deleted (protein)
chain: MEEMGSRTRDRLDEVKEQVAEVRAKLEEQAQQIRLQAEAFQARLKSWFEPLVEDMQRQWAGLVEKVQAAVGTSAAPVPSDNH
B11: CT ND3: SEQ ID NO: 20; ApoE CT with 3 N-terminal amino acids deleted (protein)
chain: EEMGSRTRDRLDEVKEQVAEVRAKLEEQAQQIRLQAEAFQARLKSWFEPLVEDMQRQWAGLVEKVQAAVGTSAAPVPSDNH
B12: CT ND4: SEQ ID NO: 21; ApoE CT with 4 N-terminal amino acids deleted (protein)
chain: EMGSRTRDRLDEVKEQVAEVRAKLEEQAQQIRLQAEAFQARLKSWFEPLVEDMQRQWAGLVEKVQAAVGTSAAPVPSDNH
B13: CT ND3CD10: SEQ ID NO: 25; ApoE CT minus 3 N-terminal and 10 C-terminal residues (protein)
chain: EEMGSRTRDRLDEVKEQVAEVRAKLEEQAQQIRLQAEAFQARLKSWFEPLVEDMQRQWAGLVEKVQAAVGT
B14: CT ND3CD11: SEQ ID NO: 26; ApoE CT minus 3 N-terminal and 11 C-terminal residues (protein)
chain: EEMGSRTRDRLDEVKEQVAEVRAKLEEQAQQIRLQAEAFQARLKSWFEPLVEDMQRQWAGLVEKVQAAVG
B15: CT ND3CD12: SEQ ID NO: 27; ApoE CT minus 3 N-terminal and 12 C-terminal residues (protein)
chain: EEMGSRTRDRLDEVKEQVAEVRAKLEEQAQQIRLQAEAFQARLKSWFEPLVEDMQRQWAGLVEKVQAAV
B16: CT ND3CD13: SEQ ID NO: 28; ApoE CT minus 3 N-terminal and 13 C-terminal residues (protein)
chain: EEMGSRTRDRLDEVKEQVAEVRAKLEEQAQQIRLQAEAFQARLKSWFEPLVEDMQRQWAGLVEKVQAA
B17: CT ND3CD14: SEQ ID NO: 29; ApoE CT minus 3 N-terminal and 14 C-terminal residues (protein)
chain: EEMGSRTRDRLDEVKEQVAEVRAKLEEQAQQIRLQAEAFQARLKSWFEPLVEDMQRQWAGLVEKVQA
B18: CT ND3CD15: SEQ ID NO: 30; ApoE CT minus 3 N-terminal and 15 C-terminal residues (protein)
chain: EEMGSRTRDRLDEVKEQVAEVRAKLEEQAQQIRLQAEAFQARLKSWFEPLVEDMQRQWAGLVEKVQ
B19: CT ND3CD20: SEQ ID NO: 31; ApoE CT minus 3 N-terminal and 20 C-terminal residues (protein)
chain: EEMGSRTRDRLDEVKEQVAEVRAKLEEQAQQIRLQAEAFQARLKSWFEPLVEDMQRQWAGL

tested on: human APP and β-secretase co-expressed in HEK 293T cells; test: HEK 293T cells co-expressing APP and β-secretase (BACE1): Aβ ELISA and β-CTF Western blot; assay type: cell-based; settings: APP and β-secretase co-expressed, ELISA, vs GFP control
Description: The experiment was performed according to the standard procedure in the ELISA analysis kit of Invitrogen Company. • a) The target protein was expressed in HEK 293T cell line. Cells were subcultured one day before transfection, and transfection was performed when the degree of cell adhesion reached 70%-80%. The transfection reagent was lipofectamine2000 (ThermoFisher). • b) 4-6 hours post transfection, medium were replaced with fresh cell culture medium. • c) 36-48 hours post transfection, the cell culture medium was collected, and then the ELISA process was performed or the cell culture medium was frozen in a −80° C. refrigerator. • d) 50 μl of standard samples and experimental samples were added to each well of the 96-well plate. • e) 50 μl of human-derived Aβ40 or Aβ42 or mouse-derived Aβ40 detection antibody was added to each well of the 96-well plate. • f) The above samples were shaken gently and placed at room temperature for 3 hours. • g) The liquid in the well were removed, and the plate was washed 4 times with 1× wash buffer. • h) 100 μl of the buffer containing 1× anti-Rabbit IgG HRP was added. • i) The plate was shaken gently and placed at room temperature for […]. • j) The liquid in the well were removed, and the well was washed 4 times with 1× wash buffer. • k) 100 μl of Stabilized Chromogen was added to each well, and the plate was placed in the dark for 30 minutes at room temperature. • l) 100 μl of Stop Solution was added to each well. • m) The absorbance at 450 nm was measured with a microplate reader. 2.4 qRT-PCR
48 hours after transfection of HEK 293T cells and N2A cells, or 4.5 days after lentivirus infection of neurons, media and lysates were collected. Aβ40 and Aβ42 in the culture medium and cell lysates were detected by an Aβ ELISA kit as indicated in the protocol. (Invitrogen Technology; KHB3481 for human Aβ40, KHB3441 for human Aβ42 and KMB3481 for mouse Aβ40).
Data were analyzed by GraphPad Prism software (v6) using unpaired, paired, or one-sample t-tests. Aβ40 and Aβ42 levels were normalized to the corresponding GFP controls. α-CTF levels were normalized to FL-APP and corresponding GFP controls. All data are represented as mean±SEM. Statistical significance was defined as p<0.05. One, two, three and four stars (*) in the graph indicate p-values <0.05, <0.01, <0.001 and <0.0001, respectively.

| Molecule | production of Aβ40 |
| --- | --- |
| B1 | can still reduce Aβ40 |
| B2 | still reduce the production of Aβ |
| B3 | still reduce the production of Aβ |
| B4 | still reduces the production of Aβ40 |
| B5 | completely lost the ability to reduce Aβ |
| B6 | completely lost the ability to reduce Aβ |
| B7 | completely lost the ability to reduce Aβ |
| B8 | completely lost the ability to reduce Aβ |
| B9 | can still reduce Aβ40 |
| B10 | can still reduce Aβ40 |
| B11 | can still reduce Aβ40 |
| B12 | can still reduce Aβ40 |
| B13 | can still significantly reduce Aβ40 |
| B14 | can still significantly reduce Aβ40 |
| B15 | can still significantly reduce Aβ40 |
| B16 | can still significantly reduce Aβ40 |
| B17 | can still significantly reduce Aβ40 |
| B18 | can still significantly reduce Aβ40 |
| B19 | can still significantly reduce Aβ40 |
